Assay [1] addresses Histidine zipper coiled coil protein from Nitrosococcus oceani (Nitro) (Nitrosococcus oceani). Briefly: crystal structure; crystal structures of the histidine zipper proteins (1.35 to 1.93 Å); antiparallel homo-dimers.
In assay [2] the target is Histidine zipper coiled coil protein from Meiothermus silvanus (Meio) (Meiothermus silvanus). The description is as above.
The target in assay [3] is CdiA‐CT^BWH57 toxin (nuclease) domain (Serratia marcescens BWH57). Description: crystal structure; CdiA-CT•CdiI complex, 1.59 Å; the N-terminal domain of CdiA-CT was cleaved off by in situ proteolysis before crystallisation.
Assay [4] addresses Histidine zipper coiled coil protein from Methylobacter tundripaludum (Tuna) (Methylobacter tundripaludum). Description: crystal structure; crystal structures of the histidine zipper proteins (1.35 to 1.93 Å); antiparallel homo-dimers.

In assay [1], “Histidine zipper coiled coil protein from Nitrosococcus oceani (Nitro) (natural protein)” came in with a stoichiometry N of 2.

Consider “Histidine zipper coiled coil protein from Meiothermus silvanus (Meio) (natural protein)”, for which the stoichiometry N in assay [2] came to 2. In turn, “CdiI^BWH57 immunity protein (natural protein)” gave a stoichiometry N in assay [3] of 1.

Take “Histidine zipper coiled coil protein from Methylobacter tundripaludum (Tuna) (natural protein)”: in assay [4], the stoichiometry N came to 2.

By stoichiometry N is commonly meant the number of molecules, sites or subunits per partner or assembly.

Source of the values: PMC8616854.
